This is an account of results in patent US20210009671A1 (AstraZeneca / MedImmune, published 2021).

For assay [1], the target named is Recombinant human NGF (Sigma) (human, UniProt P01138 122-241, limits assumed). In words: cell-based or functional assay.
Assay [2] addresses Recombinant mouse NGF (R&D Systems) (mouse, UniProt P01139 122-241). Put plainly: cell-based or functional assay.

Sequence of Recombinant human NGF (Sigma) (P01138 122-241 limits assumed): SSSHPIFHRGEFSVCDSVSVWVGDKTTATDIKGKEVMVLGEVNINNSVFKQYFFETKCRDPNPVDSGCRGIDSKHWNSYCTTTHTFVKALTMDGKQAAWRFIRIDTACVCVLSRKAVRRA
Sequence of Recombinant mouse NGF (R&D Systems) (P01139 122-241 limits assumed): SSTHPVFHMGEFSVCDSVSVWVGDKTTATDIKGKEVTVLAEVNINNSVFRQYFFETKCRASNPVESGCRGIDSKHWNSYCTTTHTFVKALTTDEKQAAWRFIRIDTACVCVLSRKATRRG

B1: MEDI-578 IgG1 TM YTE (antibody, V domains shown)
VH: QVQLVQSGAEVKKPGSSVKVSCKASGGTFSTYGISWVRQAPGQGLEWMGGIIPIFDTGNSAQSFQGRVTITADESTSTAYMELSSLRSEDTAVYYCARSSRIYDLNPSLTAYYDMDVWGQGTMVTVSS
VL: QSVLTQPPSVSAAPGQKVTISCSGSSSNIGNNYVSWYQQLPGTAPKLLIYDNNKRPSGIPDRFSGSKSGTSATLGITGLQTGDEADYYCGTWDSSLSAWVFGGGTKLTVL
B1: in assay [1], the “IC50 (read off the curve), human NGF-induced TF-1 proliferation” value is approximately 0.7 nM. In assay [2], the “IC50 (read off the curve), murine NGF-induced TF-1 proliferation” value was approximately 0.3 nM.
